The Human Domainome abundance scans (Beltran et al. 2025)
± gives the uncertainty stated by the source.

B1: RAS guanyl-releasing protein 1, residues 539 to 593; numbered along this chain, O95267 (parent)
chain: GFPHNFQETTYLKPTFCDNCAGFLWGVIKQGYRCKDCGMNCHKQCKDLVVFECKK

Variants of: B1
Assay: abundance fitness (aPCA) (normalised: wild type 0, dead -1); higher = more abundant; growth selection in yeast, the domain comes from the species named
Conditions: Homo sapiens

Variant	abundance fitness
GFPHNFQETTYLKRTFCDNCAGFLWGVIKQGYRCKDCGMNCHKQCKDLVVFECKK	-0.739 ± 0.065
GFPHNFQETTYLKHTFCDNCAGFLWGVIKQGYRCKDCGMNCHKQCKDLVVFECKK	-0.687 ± 0.12
GFPHNFQETTYLKATFCDNCAGFLWGVIKQGYRCKDCGMNCHKQCKDLVVFECKK	-0.253 ± 0.09
GFPHNFQETTYLKCTFCDNCAGFLWGVIKQGYRCKDCGMNCHKQCKDLVVFECKK	-0.235 ± 0.049
GFPHNFQETTYLKETFCDNCAGFLWGVIKQGYRCKDCGMNCHKQCKDLVVFECKK	-0.886 ± 0.18
GFPHNFQETTYLKTTFCDNCAGFLWGVIKQGYRCKDCGMNCHKQCKDLVVFECKK	-0.767 ± 0.15
GFPHNFQETTYLKDTFCDNCAGFLWGVIKQGYRCKDCGMNCHKQCKDLVVFECKK	-0.38 ± 0.12
GFPHNFQETTYLKYTFCDNCAGFLWGVIKQGYRCKDCGMNCHKQCKDLVVFECKK	-0.397 ± 0.071
GFPHNFQETTYLKITFCDNCAGFLWGVIKQGYRCKDCGMNCHKQCKDLVVFECKK	-0.647 ± 0.24
GFPHNFQETTYLKWTFCDNCAGFLWGVIKQGYRCKDCGMNCHKQCKDLVVFECKK	-0.108 ± 0.076
GFPHNFQETTYLKQTFCDNCAGFLWGVIKQGYRCKDCGMNCHKQCKDLVVFECKK	-1 ± 0.31
GFPHNFQETTYLKFTFCDNCAGFLWGVIKQGYRCKDCGMNCHKQCKDLVVFECKK	-0.364 ± 0.18
GFPHNFQETTYLKGTFCDNCAGFLWGVIKQGYRCKDCGMNCHKQCKDLVVFECKK	-0.449 ± 0.07
GFPHNFQETTYLKNTFCDNCAGFLWGVIKQGYRCKDCGMNCHKQCKDLVVFECKK	-0.931 ± 0.35
GFPHNFQETTYLKKTFCDNCAGFLWGVIKQGYRCKDCGMNCHKQCKDLVVFECKK	-0.672 ± 0.17
GFPHNFQETTYLKVTFCDNCAGFLWGVIKQGYRCKDCGMNCHKQCKDLVVFECKK	-0.384 ± 0.082
GFPHNFQETTYLKLTFCDNCAGFLWGVIKQGYRCKDCGMNCHKQCKDLVVFECKK	-0.296 ± 0.075
GFPHNFQETTYLKPCFCDNCAGFLWGVIKQGYRCKDCGMNCHKQCKDLVVFECKK	-0.327 ± 0.2
GFPHNFQETTYLKPAFCDNCAGFLWGVIKQGYRCKDCGMNCHKQCKDLVVFECKK	0.105 ± 0.092
GFPHNFQETTELKPTFCDNCAGFLWGVIKQGYRCKDCGMNCHKQCKDLVVFECKK	-0.256 ± 0.12
GFPHNFQETTALKPTFCDNCAGFLWGVIKQGYRCKDCGMNCHKQCKDLVVFECKK	-0.267 ± 0.098
GFPHNFQETTDLKPTFCDNCAGFLWGVIKQGYRCKDCGMNCHKQCKDLVVFECKK	-0.832 ± 0.11
GFPHNFQETTILKPTFCDNCAGFLWGVIKQGYRCKDCGMNCHKQCKDLVVFECKK	-0.301 ± 0.097
GFPHNFQETTTLKPTFCDNCAGFLWGVIKQGYRCKDCGMNCHKQCKDLVVFECKK	-0.318 ± 0.15

Variant	abundance fitness
GFPHNFQETTCLKPTFCDNCAGFLWGVIKQGYRCKDCGMNCHKQCKDLVVFECKK	-0.151 ± 0.074
GFPHNFQETTLLKPTFCDNCAGFLWGVIKQGYRCKDCGMNCHKQCKDLVVFECKK	-0.031 ± 0.071
GFPHNFQETTVLKPTFCDNCAGFLWGVIKQGYRCKDCGMNCHKQCKDLVVFECKK	-0.25 ± 0.079
GFPHNFQETTKLKPTFCDNCAGFLWGVIKQGYRCKDCGMNCHKQCKDLVVFECKK	-0.036 ± 0.12
GFPHNFQETTPLKPTFCDNCAGFLWGVIKQGYRCKDCGMNCHKQCKDLVVFECKK	-0.742 ± 0.2
GFPHNFQETTNLKPTFCDNCAGFLWGVIKQGYRCKDCGMNCHKQCKDLVVFECKK	-0.225 ± 0.073
GFPHNFQETTWLKPTFCDNCAGFLWGVIKQGYRCKDCGMNCHKQCKDLVVFECKK	-0.17 ± 0.14
GFPHNFQETTRLKPTFCDNCAGFLWGVIKQGYRCKDCGMNCHKQCKDLVVFECKK	-0.214 ± 0.055
GFPHNFQETTHLKPTFCDNCAGFLWGVIKQGYRCKDCGMNCHKQCKDLVVFECKK	0 ± 0.18
GFPHNFQETTSLKPTFCDNCAGFLWGVIKQGYRCKDCGMNCHKQCKDLVVFECKK	0.028 ± 0.083
GFPHNFQETTQLKPTFCDNCAGFLWGVIKQGYRCKDCGMNCHKQCKDLVVFECKK	-0.458 ± 0.41
GFPHNFQETTFLKPTFCDNCAGFLWGVIKQGYRCKDCGMNCHKQCKDLVVFECKK	0.227 ± 0.11
GFPHNFQETTYNKPTFCDNCAGFLWGVIKQGYRCKDCGMNCHKQCKDLVVFECKK	-0.768 ± 0.4
GFPHNFQETTYCKPTFCDNCAGFLWGVIKQGYRCKDCGMNCHKQCKDLVVFECKK	-0.183 ± 0.11
GFPHNFQETTYGKPTFCDNCAGFLWGVIKQGYRCKDCGMNCHKQCKDLVVFECKK	-0.038 ± 0.08
GFPHNFQETTYMKPTFCDNCAGFLWGVIKQGYRCKDCGMNCHKQCKDLVVFECKK	0.319 ± 0.12
GFPHNFQETTYFKPTFCDNCAGFLWGVIKQGYRCKDCGMNCHKQCKDLVVFECKK	-0.076 ± 0.09
GFPHNFQETTYIKPTFCDNCAGFLWGVIKQGYRCKDCGMNCHKQCKDLVVFECKK	-0.63 ± 0.23
GFPHNFQETTYWKPTFCDNCAGFLWGVIKQGYRCKDCGMNCHKQCKDLVVFECKK	-0.298 ± 0.13
GFPHNFQETTYDKPTFCDNCAGFLWGVIKQGYRCKDCGMNCHKQCKDLVVFECKK	-0.424 ± 0.17
GFPHNFQETTYVKPTFCDNCAGFLWGVIKQGYRCKDCGMNCHKQCKDLVVFECKK	-0.39 ± 0.097
GFPHNFQETTYSKPTFCDNCAGFLWGVIKQGYRCKDCGMNCHKQCKDLVVFECKK	-0.123 ± 0.084
GFPHNFQETTYRKPTFCDNCAGFLWGVIKQGYRCKDCGMNCHKQCKDLVVFECKK	-0.178 ± 0.06
GFPHNFQETTYYKPTFCDNCAGFLWGVIKQGYRCKDCGMNCHKQCKDLVVFECKK	-0.145 ± 0.12
